Experimental data published in doi:10.1101/2020.12.22.424058, “Structural basis for the dimerization-dependent CRISPR-Cas12f nuclease” (bioRxiv, 2020).

Tests used:
[1] = biological target: the molecule itself; assay: cryo-EM structure; Cas12f D510A with sgRNA (222 nt) and target dsDNA (60 bp, TTTA PAM) at 1:1.2:1.3, 37°C, then SEC (Superdex 200) in 25 mM Tris-HCl pH 7.6, 150 mM NaCl, 2 mM DTT, 1 mM MgCl2; ternary complex, 3.1 Å; the two Cas12f copies are bound to one sgRNA
[2] = biological target: the molecule itself; assay: cryo-EM structure; Cas12f with sgRNA at 1:1.2, 37°C for 30 min in 25 mM Tris-HCl pH 7.6, 150 mM NaCl, 2 mM DTT, 1 mM MgCl2; binary complex, 3.9 Å; the two Cas12f copies are bound to one sgRNA

Protein | stoichiometry N [1] | binding result [2]
Un1Cas12f1^D510A (enzyme, UniProt A0A482D308 1-529, looked up, Cas12f (UnCas12f1, Un1Cas12f1; also known as Cas14), 529 amino acids, 61.5 kDa; plasmid Addgene #112500; Two copies (Cas12f.1 and Cas12f.2) stand in the complex with one sgRNA and the target dsDNA; The model lacks three N-terminal and four C-terminal residues; also called Cas12f D510A mutant; source: E. coli BL21(DE3), purified (Ni-NTA, HiTrap SP HP, Superdex 200); not shown: 10xHis, N-terminal, …) MAKNTITKTLKLRIVRPYNSAEVEKIVADEKNNREKIALEKNKDKVKEACSKHLKVAAYCTTQVERNACLFCKARKLDDKFYQKLRGQFPDAVFWQEISEIFRQLQKQAAEIYNQSLIELYYEIFIKGKGIANASSVEHYLSDVCYTRAAELFKNAAIASGLRSKIKSNFRLKELKNMKSGLPTTKSDNFPIPLVKQKGGQYTGFEISNHNSDFIIKIPFGRWQVKKEIDKYRPWEKFDFEQVQKSPKPISLLLSTQRRKRNKGWSKDEGTEAEIKKVMNGDYQTSYIEVKRGSKIGEKSAWMLNLSIDVPKIDKGVDPSIIGGIDVGVKSPLVCAINNAFSRYSISDNDLFHFNKKMFARRRILLKKNRHKRAGHGAKNKLKPITILTEKSERFRKKLIERWACEIADFFIKNKVGTVQMENLESMKRKEDSYFNIRLRGFWPYAEMQNKIEFKLKQYGIEIRKVAPNNTSKTCSKCGHLNNYFNFEYRKKNKFPHFKCEKCNFKENAAYNAALNISNPKLKSTKEEP | 2 | 
Cas12f (UnCas12f1) (enzyme, UniProt A0A482D308 1-529, looked up, Cas12f (UnCas12f1, Un1Cas12f1; also known as Cas14), 529 amino acids, 61.5 kDa; plasmid Addgene #112500; The methods say only 'Cas12f proteins' for the binary complex with sgRNA; also called Un1Cas12f1; Cas14; source: E. coli BL21(DE3), purified (Ni-NTA, HiTrap SP HP, Superdex 200); not shown: 10xHis, N-terminal, cleaved; MBP, N-terminal, cleaved) MAKNTITKTLKLRIVRPYNSAEVEKIVADEKNNREKIALEKNKDKVKEACSKHLKVAAYCTTQVERNACLFCKARKLDDKFYQKLRGQFPDAVFWQEISEIFRQLQKQAAEIYNQSLIELYYEIFIKGKGIANASSVEHYLSDVCYTRAAELFKNAAIASGLRSKIKSNFRLKELKNMKSGLPTTKSDNFPIPLVKQKGGQYTGFEISNHNSDFIIKIPFGRWQVKKEIDKYRPWEKFDFEQVQKSPKPISLLLSTQRRKRNKGWSKDEGTEAEIKKVMNGDYQTSYIEVKRGSKIGEKSAWMLNLSIDVPKIDKGVDPSIIGGIDVGVKSPLVCAINNAFSRYSISDNDLFHFNKKMFARRRILLKKNRHKRAGHGAKNKLKPITILTEKSERFRKKLIERWACEIADFFIKNKVGTVQMENLESMKRKEDSYFNIRLRGFWPYAEMQNKIEFKLKQYGIEIRKVAPNNTSKTCSKCGHLNNYFNFEYRKKNKFPHFKCEKCNFKENADYNAALNISNPKLKSTKEEP |  | binds
